Test results as given in patent US20250313637A1 (DREN BIO MANAGEMENT, published 2025).
Blank lines part the entries; values can stand above or below the binder they belong to.

Columns and labels:
[1] = target: T1, human Dectin-1 expressed by HEK-Blue hDectin-1-a cells (human, UniProt Q9BXN2 1-247); assay: cell-based or functional assay
T1 sequence: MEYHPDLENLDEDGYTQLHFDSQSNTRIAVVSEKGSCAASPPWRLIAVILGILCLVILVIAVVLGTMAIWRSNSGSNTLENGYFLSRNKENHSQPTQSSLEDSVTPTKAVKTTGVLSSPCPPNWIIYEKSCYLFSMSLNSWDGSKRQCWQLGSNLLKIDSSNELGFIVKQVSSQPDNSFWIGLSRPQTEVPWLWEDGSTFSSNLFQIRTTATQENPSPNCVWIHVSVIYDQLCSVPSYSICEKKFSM

[2] = target: T2, CD20 expressed on Raji cells (UniProt P11836 1-297, limits assumed); assay: flow cytometry on CD20-expressing Raji cells
T2 construct: whole, on cells; also called CD20-expressing Raji cells; CD20-expressing B cell lymphoma Raji cell line
T2 sequence (looked up): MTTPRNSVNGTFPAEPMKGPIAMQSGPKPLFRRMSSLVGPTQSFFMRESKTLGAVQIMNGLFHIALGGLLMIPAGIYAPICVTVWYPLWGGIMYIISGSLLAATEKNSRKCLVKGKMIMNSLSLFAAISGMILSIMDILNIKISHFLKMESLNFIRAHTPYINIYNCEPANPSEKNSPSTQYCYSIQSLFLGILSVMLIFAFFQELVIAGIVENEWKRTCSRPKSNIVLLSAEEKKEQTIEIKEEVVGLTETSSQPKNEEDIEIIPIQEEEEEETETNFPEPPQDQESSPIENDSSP
Experimental: To evaluate the effect of the 2M24xCD20 bispecific antibody on cells, its binding affinity for cells expressing Dectin-1 or CD20 was measured. Two different formats were used to drive heavy:light chain pairing and bispecific antibody assembly: the DuetMab format with engineered disulfide bonds (see Mazor, Y. et al. (2015) MAbs 7:377-389) (“2M24xCD20 hG1 Duet”) and the M-Fab format described herein (see, e.g., FIG. 3) (“2M24xCD20 hG1M”), as compared to monospecific anti-CD20 with hG1 Fc. Binding of the bispecific 2M24xCD20 antibodies to Dectin-1-expressing HEK293 cells was assessed by flow cytometry (FIG. 7A). Both M-Fab and DuetMab formats were able to bind cells expressing Dectin-1 with similar affinities. Binding of the bispecific 2M24xCD20 antibodies to cells expressing CD20 was also assessed by flow cytometry, using the CD20-expressing B cell lymphoma Raji cell line (FIG. 7B). Both M-Fab and DuetMab were able to bind cells expressing CD20 with similar affinities, but with reduced affinity compared to the parental monospecific anti-CD20 antibody.

SEAP reporter assay EC50 (OD630), HEK-Blue hDectin-1-a cells co-cultured with CD20-expressing Raji cells, Exp. 1 [1]: 3.65 nM | SEAP reporter assay EC50 (OD630), HEK-Blue hDectin-1-a cells co-cultured with CD20-expressing Raji cells, Exp. 2 [1]: 3.53 nM
B1: M-Fab 2M24xCD20 bispecific antibody (2M24xCD20 hG1M) (bispecific antibody, human IgG1, kappa)
heavy 1: not shown
light 1: DIQMTQSPSSVSASVGDRVTITCRASQGISSWLAWYQQKPGKAPKLLIFGASSLQSGVPSRFSGSGSGTDFTLTVSSLQPEDFATYYCQQAYSFPFTFGPGTKVDIERTVALHRPDVYLLPPAREQLNLRESATIWCLVTGFSPADVFVQWMQRGQPLSPEKYVTSAPMPEPQAPGRYFAHSILTVSEEEWNTGETYTCVVAHEALPNRVTERTVDKSTGEC
heavy 2: QVQLQQPGAELVKPGASVKMSCKASGYTFTSYNMHWVKQTPGRGLEWIGAIYPGNGDTSYNQKFKGKATLTADKSSSTAYMQLSSLTSEDSAVYYCARSTYYGGDWYFNVWGAGTTVTVSAASTKGPSVFPLAPSSKSTSGGTAALGCLVKDYFPEPVTVSWNSGALTSGVHTFPAVLQSSGLYSLSSVVTVPSSSLGTQTYICNVNHKPSNTKVDKKVEPKSCDKTHTCPPCPAPELLGGPSVFLFPPKPKDTLMISRTPEVTCVVVDVSHEDPEVKFNWYVDGVEVHNAKTKPREEQYNSTYRVVSVLTVLHQDWLNGKEYKCKVSNKALPAPIEKTISKAKGQPREPQVYTLPPSREEMTKNQVSLSCAVKGFYPSDIAVEWESNGQPENNYKTTPPVLDSDGSFFLVSKLTVDKSRWQQGNVFSCSVMHEALHNRFTQKSLSLSPG
light 2: QIVLSQSPAILSASPGEKVTMTCRASSSVSYIHWFQQKPGSSPKPWIYATSNLASGVPVRFSGSGSGTSYSLTISRVEAEDAATYYCQQWTSNPPTFGGGTKLEIKRTVAAPSVFIFPPSDEQLKSGTASVVCLLNNFYPREAKVQWKVDNALQSGNSQESVTEQDSKDSTYSLSSTLTLSKADYEKHKVYACEVTHQGLSSPVTKSFNRGEC

SEAP reporter assay EC50, in presence of CHO cells (~2 million copies/cell) [1]: 0.13 nM | SEAP reporter assay EC50, in presence of H2170 cells expressing Trop2 (~136,000 copies/cell) [1]: 0.17 nM | SEAP reporter assay EC50, in presence of HeLa cells expressing Trop2 (~25,500 copies/cell) [1]: 0.37 nM | SEAP reporter assay, fold shift in EC50 against traditional bispecific, CHO cells [1]: 9.8 fold | SEAP reporter assay, fold shift in EC50 against traditional bispecific, H2170 cells [1]: 47.6 fold | SEAP reporter assay, fold shift in EC50 against traditional bispecific, HeLa cells [1]: 4.7 fold
B2: 2+1 M-Fab (2M24xTrop2 hIgG1) bispecific antibody (bispecific antibody)
heavy 1: not shown
light 1: not shown
heavy 2: not shown
light 2: DIVLTQSPGTLSLSPGERATLSCRASQSVSSSYLAWYQQKPGQAPRLLISGASSRATGIPDRFSGSGSGTDFTLTISRLEPEDFAVYYCQQYGSSHRTFGQGTKVEIKRTVALHRPDVYLLPPAREQLNLRESATIWCLVTGFSPADVFVQWMQRGQPLSPEKYVTSAPMPEPQAPGRYFAHSILTVSEEEWNTGETYTCVVAHEALPNRVTERTVDKSTGES

SEAP reporter assay EC50 (OD630), HEK-Blue hDectin-1-a cells co-cultured with CD20-expressing Raji cells, Exp. 1 [1]: 2.63 nM | SEAP reporter assay EC50 (OD630), HEK-Blue hDectin-1-a cells co-cultured with CD20-expressing Raji cells, Exp. 2 [1]: 3.19 nM | binding result [2]: binds
B3: DuetMab 2M24xCD20 bispecific antibody (2M24xCD20 hG1 Duet) (bispecific antibody, V domains shown)
VH 1: QVQLVQSGAEVKKPGASVKVSCKSSGYTFTDYYIHWVRQAPGQGLEWMGWINPNSGDTNYAQKFQGRITMTRDTSISTAYLELSRLRSDDTAVFYCARNSGSYSFGYWGQGTLVTVSS
VL 1: DIQMTQSPSSVSASVGDRVTITCRASQGISSWLAWYQQKPGKAPKLLIFGASSLQSGVPSRFSGSGSGTDFTLTVSSLQPEDFATYYCQQAYSFPFTFGPGTKVDIE
VH 2: QVQLQQPGAELVKPGASVKMSCKASGYTFTSYNMHWVKQTPGRGLEWIGAIYPGNGDTSYNQKFKGKATLTADKSSSTAYMQLSSLTSEDSAVYYCARSTYYGGDWYFNVWGAGTTVTVSA
VL 2: QIVLSQSPAILSASPGEKVTMTCRASSSVSYIHWFQQKPGSSPKPWIYATSNLASGVPVRFSGSGSGTSYSLTISRVEAEDAATYYCQQWTSNPPTFGGGTKLEIK
notes: Human IgG1 in the DuetMab format with engineered disulfide bonds (Mazor 2015)
